Measurements: doi:10.1101/323444
Each block holds one substance with its values, some of them ahead of it.

Assays:
Assay in all cases: SEC
[1] = biological target: CckA ΔPAS-A-B ΔRD (Caulobacter crescentus)
[2] = biological target: CckA ΔPAS-A ΔRD (Caulobacter crescentus)
[3] = biological target: CckA (WT, N-terminal His-tag in place of its transmembrane helices) (Caulobacter crescentus) (UniProt Q9X688)
[4] = biological target: CckA ΔPAS-A (Caulobacter crescentus)

stoichiometry N (CckA per complex) [1]: 2
Substance: CckA ΔPAS-A-B ΔRD (domain or fragment)

stoichiometry N (CckA per complex) [2]: 2
Substance: CckA ΔPAS-A ΔRD (domain or fragment)

stoichiometry N (CckA per complex) [3]: 4
Substance: CckA (WT, N-terminal His-tag in place of its transmembrane helices) (from UniProt Q9X688 1-691) (enzyme)

stoichiometry N (CckA per complex) [4]: 3.1
Substance: CckA ΔPAS-A (domain or fragment)
